Assay results as given in the supplement of paper PMC10065799, “High-throughput profiling of sequence recognition by tyrosine kinases and SH2 domains using bacterial peptide display” (eLife, 2023).
Values belong to the sequence of their own block, whether it stands above or below them.

Experiments:
MERTK = MERTK (UniProt Q12866); test: phosphorylation enrichment, bacterial display (enrichment ratio); higher = better substrate or ligand; peptides without Tyr show the background
Jak2 = Jak2 (UniProt O60674); test: as above
AncSZ = test: as above
Fer (mouse) = test: as above
EPHB1 = EPHB1 (UniProt P54762); test: as above
EPHB2 = EPHB2 (UniProt P29323); test: as above
FGFR3 = FGFR3 (UniProt P22607); test: as above
Hck = Hck (UniProt P08631); test: as above
FGFR1 = FGFR1 (UniProt P11362); test: as above
Fes = Fes (UniProt P07332); test: as above
Fyn = Fyn (UniProt P06241); test: as above
c-Abl (mouse) = test: as above
c-Src = test: as above
c-Src SH2 = test: SH2 binding enrichment of the phosphorylated peptide, bacterial display (enrichment ratio); higher = better substrate or ligand; peptides without Tyr show the background
SHP2-C SH2 = test: as above
Grb2 SH2 = Grb2 SH2 (UniProt P62993); test: as above
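For SH2 binding enrichment of the phosphorylated peptide, bacterial display in this document: peptide library displayed on the E. coli surface as eCPX fusions, selected cells deep-sequenced, score is each peptide's frequency after selection divided by its frequency in the input.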
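For phosphorylation enrichment, bacterial display in this document: 11-residue human phosphosite peptides and single-mutation variants displayed on the E. coli surface, counted by deep sequencing, each peptide's frequency after selection divided by its frequency in the unselected input library; frequency after pTyr selection over input frequency; kinase dosed for 20-30% of maximal phosphorylation in three min.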

FGFR1, sequence (P11362 whole entry, looked up): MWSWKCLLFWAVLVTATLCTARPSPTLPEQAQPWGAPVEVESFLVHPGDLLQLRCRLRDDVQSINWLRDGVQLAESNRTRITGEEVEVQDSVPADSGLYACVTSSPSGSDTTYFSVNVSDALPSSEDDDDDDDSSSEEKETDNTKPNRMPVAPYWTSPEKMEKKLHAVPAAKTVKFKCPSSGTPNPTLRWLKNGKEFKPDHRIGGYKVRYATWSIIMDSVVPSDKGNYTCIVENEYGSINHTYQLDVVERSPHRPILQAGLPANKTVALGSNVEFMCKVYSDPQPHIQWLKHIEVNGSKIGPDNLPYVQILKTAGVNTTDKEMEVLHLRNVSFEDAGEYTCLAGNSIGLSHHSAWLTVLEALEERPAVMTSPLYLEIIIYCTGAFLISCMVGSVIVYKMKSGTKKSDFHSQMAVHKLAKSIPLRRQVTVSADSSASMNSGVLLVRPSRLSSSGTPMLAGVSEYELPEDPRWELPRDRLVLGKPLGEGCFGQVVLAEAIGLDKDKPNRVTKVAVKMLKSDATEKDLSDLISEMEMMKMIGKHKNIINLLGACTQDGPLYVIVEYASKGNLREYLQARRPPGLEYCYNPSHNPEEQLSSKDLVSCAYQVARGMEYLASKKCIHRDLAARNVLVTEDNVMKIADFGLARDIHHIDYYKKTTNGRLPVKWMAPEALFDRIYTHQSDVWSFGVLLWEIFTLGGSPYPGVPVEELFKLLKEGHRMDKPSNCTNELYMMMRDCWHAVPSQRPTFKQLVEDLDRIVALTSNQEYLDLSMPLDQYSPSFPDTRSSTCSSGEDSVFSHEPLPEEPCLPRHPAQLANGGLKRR
Fes, sequence (P07332 whole entry, looked up): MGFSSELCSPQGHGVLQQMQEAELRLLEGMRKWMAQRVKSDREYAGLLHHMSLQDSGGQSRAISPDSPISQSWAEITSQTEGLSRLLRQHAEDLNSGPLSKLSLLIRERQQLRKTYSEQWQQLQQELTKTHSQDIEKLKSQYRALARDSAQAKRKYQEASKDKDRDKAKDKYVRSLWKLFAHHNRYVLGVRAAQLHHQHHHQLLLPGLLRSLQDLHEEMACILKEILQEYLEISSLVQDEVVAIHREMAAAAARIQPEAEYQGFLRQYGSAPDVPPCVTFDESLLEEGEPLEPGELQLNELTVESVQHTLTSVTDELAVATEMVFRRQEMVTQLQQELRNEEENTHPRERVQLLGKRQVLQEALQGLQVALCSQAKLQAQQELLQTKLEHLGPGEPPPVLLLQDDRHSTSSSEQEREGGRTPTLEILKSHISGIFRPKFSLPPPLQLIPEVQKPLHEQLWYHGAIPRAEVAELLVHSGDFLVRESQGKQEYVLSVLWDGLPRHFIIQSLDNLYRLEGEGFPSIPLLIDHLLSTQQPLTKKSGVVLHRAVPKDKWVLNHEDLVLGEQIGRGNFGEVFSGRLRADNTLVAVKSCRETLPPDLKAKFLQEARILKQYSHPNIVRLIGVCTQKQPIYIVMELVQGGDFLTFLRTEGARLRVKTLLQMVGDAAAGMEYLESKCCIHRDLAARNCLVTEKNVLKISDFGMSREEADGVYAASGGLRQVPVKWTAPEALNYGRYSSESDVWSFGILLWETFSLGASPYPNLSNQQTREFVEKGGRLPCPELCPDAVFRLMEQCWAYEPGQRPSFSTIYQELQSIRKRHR
FGFR3, sequence (P22607 whole entry, looked up): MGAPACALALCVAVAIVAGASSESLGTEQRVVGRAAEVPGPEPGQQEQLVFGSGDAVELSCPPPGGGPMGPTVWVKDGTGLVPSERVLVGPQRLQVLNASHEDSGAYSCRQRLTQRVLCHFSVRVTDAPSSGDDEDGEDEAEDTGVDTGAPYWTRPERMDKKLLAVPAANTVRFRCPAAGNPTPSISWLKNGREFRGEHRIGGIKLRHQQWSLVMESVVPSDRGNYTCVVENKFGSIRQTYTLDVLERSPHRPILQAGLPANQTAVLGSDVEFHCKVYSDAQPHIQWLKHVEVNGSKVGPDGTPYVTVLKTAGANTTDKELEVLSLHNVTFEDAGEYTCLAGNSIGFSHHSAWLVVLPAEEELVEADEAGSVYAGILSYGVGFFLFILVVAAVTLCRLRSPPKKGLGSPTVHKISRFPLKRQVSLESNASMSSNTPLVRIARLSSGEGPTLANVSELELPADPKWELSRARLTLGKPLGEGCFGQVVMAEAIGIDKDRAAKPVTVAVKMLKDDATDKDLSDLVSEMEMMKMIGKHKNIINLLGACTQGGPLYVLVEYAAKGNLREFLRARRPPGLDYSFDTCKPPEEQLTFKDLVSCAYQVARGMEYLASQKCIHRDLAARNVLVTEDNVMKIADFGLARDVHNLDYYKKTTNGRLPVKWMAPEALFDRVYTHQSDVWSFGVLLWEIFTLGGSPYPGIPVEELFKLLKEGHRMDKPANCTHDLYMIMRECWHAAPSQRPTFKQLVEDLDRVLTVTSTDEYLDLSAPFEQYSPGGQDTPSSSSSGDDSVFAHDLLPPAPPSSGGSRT
MERTK, sequence (Q12866 whole entry, looked up): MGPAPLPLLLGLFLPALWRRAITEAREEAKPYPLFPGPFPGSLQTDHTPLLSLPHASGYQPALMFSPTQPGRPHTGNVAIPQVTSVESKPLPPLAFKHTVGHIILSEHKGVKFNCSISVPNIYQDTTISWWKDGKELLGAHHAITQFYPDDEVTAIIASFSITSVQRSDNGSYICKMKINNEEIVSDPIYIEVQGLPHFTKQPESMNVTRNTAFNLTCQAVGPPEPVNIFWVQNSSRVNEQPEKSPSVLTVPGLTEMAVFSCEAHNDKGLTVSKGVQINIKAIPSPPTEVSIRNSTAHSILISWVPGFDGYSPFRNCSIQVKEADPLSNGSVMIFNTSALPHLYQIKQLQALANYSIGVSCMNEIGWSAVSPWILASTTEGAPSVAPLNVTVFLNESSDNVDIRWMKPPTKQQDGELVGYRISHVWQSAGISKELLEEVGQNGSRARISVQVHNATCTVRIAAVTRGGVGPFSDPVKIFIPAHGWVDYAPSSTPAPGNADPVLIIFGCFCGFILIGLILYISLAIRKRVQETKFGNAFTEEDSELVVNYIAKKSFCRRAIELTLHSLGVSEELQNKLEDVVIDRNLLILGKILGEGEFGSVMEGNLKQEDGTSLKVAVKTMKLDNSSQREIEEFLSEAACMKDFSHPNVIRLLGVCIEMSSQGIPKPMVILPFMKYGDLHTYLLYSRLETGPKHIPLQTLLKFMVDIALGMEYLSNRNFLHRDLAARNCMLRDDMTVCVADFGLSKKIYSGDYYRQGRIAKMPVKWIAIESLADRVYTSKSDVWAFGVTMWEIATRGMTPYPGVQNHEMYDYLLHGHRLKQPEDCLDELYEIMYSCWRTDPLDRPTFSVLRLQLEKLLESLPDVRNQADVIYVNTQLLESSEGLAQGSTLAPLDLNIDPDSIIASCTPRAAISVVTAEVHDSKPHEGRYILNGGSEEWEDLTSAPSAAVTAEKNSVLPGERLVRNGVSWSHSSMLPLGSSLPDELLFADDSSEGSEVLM
EPHB2, sequence (P29323 whole entry, looked up): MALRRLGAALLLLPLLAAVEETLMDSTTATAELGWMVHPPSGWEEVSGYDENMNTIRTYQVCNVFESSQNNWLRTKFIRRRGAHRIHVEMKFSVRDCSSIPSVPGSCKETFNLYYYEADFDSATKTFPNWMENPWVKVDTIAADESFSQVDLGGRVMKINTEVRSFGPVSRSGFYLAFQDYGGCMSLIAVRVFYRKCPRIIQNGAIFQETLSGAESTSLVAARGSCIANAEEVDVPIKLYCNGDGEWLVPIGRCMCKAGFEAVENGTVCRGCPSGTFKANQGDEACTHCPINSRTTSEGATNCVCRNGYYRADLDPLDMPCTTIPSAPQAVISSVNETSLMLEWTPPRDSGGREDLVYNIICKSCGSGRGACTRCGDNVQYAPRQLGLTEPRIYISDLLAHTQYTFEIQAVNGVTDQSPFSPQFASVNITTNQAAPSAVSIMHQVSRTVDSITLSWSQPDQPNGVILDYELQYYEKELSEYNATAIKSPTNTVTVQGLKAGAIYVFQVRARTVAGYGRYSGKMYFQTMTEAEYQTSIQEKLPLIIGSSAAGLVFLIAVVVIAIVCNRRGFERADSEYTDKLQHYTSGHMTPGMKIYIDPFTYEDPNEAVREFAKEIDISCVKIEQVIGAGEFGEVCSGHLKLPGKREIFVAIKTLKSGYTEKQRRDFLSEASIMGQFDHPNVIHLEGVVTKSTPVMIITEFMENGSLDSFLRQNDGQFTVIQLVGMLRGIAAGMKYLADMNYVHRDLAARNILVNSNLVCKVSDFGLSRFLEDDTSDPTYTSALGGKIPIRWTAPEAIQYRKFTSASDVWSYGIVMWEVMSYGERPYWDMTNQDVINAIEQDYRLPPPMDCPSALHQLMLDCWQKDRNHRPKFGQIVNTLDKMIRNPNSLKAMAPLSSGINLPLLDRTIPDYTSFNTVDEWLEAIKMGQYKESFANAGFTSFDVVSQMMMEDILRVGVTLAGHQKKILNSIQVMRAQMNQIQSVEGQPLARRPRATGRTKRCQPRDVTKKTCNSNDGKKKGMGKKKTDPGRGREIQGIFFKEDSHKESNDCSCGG
Fyn, sequence (P06241 whole entry, looked up): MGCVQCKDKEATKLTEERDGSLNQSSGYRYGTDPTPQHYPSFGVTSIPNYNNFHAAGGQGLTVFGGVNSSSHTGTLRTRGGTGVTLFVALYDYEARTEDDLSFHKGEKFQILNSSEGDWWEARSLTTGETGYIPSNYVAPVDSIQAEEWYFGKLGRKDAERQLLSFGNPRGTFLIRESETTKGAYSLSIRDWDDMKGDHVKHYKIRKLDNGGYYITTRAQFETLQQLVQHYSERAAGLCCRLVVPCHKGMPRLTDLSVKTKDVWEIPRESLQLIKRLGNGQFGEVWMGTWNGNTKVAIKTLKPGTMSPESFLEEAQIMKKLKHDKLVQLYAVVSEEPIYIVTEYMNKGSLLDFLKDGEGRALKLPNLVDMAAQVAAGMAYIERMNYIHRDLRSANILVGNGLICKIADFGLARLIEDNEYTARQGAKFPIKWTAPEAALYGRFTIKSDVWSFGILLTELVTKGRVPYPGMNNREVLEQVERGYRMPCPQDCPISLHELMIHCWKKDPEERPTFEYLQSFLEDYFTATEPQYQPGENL

Sequence: RQEEEYKRFSE [SFSWAP_Y133_L136F]
phosphorylation enrichment (MERTK): 0.682 | phosphorylation enrichment (Jak2): 1.11 | phosphorylation enrichment (AncSZ): 1.41 | phosphorylation enrichment (Fer (mouse)): 0.663 | phosphorylation enrichment (EPHB1): 0.779 | phosphorylation enrichment (EPHB2): 0.88 | phosphorylation enrichment (FGFR3): 0.918 | phosphorylation enrichment (Hck): 0.648 | phosphorylation enrichment (FGFR1): 0.712 | phosphorylation enrichment (Fes): 1.95 | phosphorylation enrichment (Fyn): 0.602 | phosphorylation enrichment (c-Abl (mouse)): 0.831 | phosphorylation enrichment (c-Src): 0.554 | SH2 binding enrichment (c-Src SH2): 0.609 | SH2 binding enrichment (SHP2-C SH2): 0.66 | SH2 binding enrichment (Grb2 SH2): 1.27

Sequence: RRERPYGGGGG [FUS_Y526]
phosphorylation enrichment (MERTK): 0.375 | phosphorylation enrichment (Jak2): 0.42 | phosphorylation enrichment (AncSZ): 0.563 | phosphorylation enrichment (Fer (mouse)): 0.46 | phosphorylation enrichment (EPHB1): 0.453 | phosphorylation enrichment (EPHB2): 0.554 | phosphorylation enrichment (FGFR3): 0.523 | phosphorylation enrichment (Hck): 0.414 | phosphorylation enrichment (FGFR1): 0.554 | phosphorylation enrichment (Fes): 0.467 | phosphorylation enrichment (Fyn): 0.471 | phosphorylation enrichment (c-Abl (mouse)): 0.284 | phosphorylation enrichment (c-Src): 0.485 | SH2 binding enrichment (c-Src SH2): 0.436 | SH2 binding enrichment (SHP2-C SH2): 0.478 | SH2 binding enrichment (Grb2 SH2): 0.703

Sequence: RRIHSYRRHLW [VHL_Y112_G114R]
phosphorylation enrichment (MERTK): 0.707 | phosphorylation enrichment (Jak2): 0.633 | phosphorylation enrichment (AncSZ): 0.735 | phosphorylation enrichment (Fer (mouse)): 0.529 | phosphorylation enrichment (EPHB1): 0.725 | phosphorylation enrichment (EPHB2): 0.82 | phosphorylation enrichment (FGFR3): 0.718 | phosphorylation enrichment (Hck): 0.746 | phosphorylation enrichment (FGFR1): 0.868 | phosphorylation enrichment (Fes): 0.699 | phosphorylation enrichment (Fyn): 0.65 | phosphorylation enrichment (c-Abl (mouse)): 0.699 | phosphorylation enrichment (c-Src): 0.584 | SH2 binding enrichment (c-Src SH2): 0.536 | SH2 binding enrichment (SHP2-C SH2): 0.678 | SH2 binding enrichment (Grb2 SH2): 0.918

Continued, in another order:

SH2 binding enrichment (c-Src SH2): 0.389 | SH2 binding enrichment (SHP2-C SH2): 0.531 | SH2 binding enrichment (Grb2 SH2): 0.532
Sequence: RRIHRYRGHLW [VHL_Y112_S111R]
phosphorylation enrichment (MERTK): 0.575 | phosphorylation enrichment (Jak2): 0.375 | phosphorylation enrichment (AncSZ): 0.563 | phosphorylation enrichment (Fer (mouse)): 0.376 | phosphorylation enrichment (EPHB1): 0.507 | phosphorylation enrichment (EPHB2): 0.445 | phosphorylation enrichment (FGFR3): 0.452 | phosphorylation enrichment (Hck): 0.462 | phosphorylation enrichment (FGFR1): 0.43 | phosphorylation enrichment (Fes): 0.524 | phosphorylation enrichment (Fyn): 0.468 | phosphorylation enrichment (c-Abl (mouse)): 0.382 | phosphorylation enrichment (c-Src): 0.49

SH2 binding enrichment (c-Src SH2): 0.484 | SH2 binding enrichment (SHP2-C SH2): 0.568 | SH2 binding enrichment (Grb2 SH2): 0.923
Sequence: RRIHSNRGHLW [VHL_Y112_Y112N]
phosphorylation enrichment (MERTK): 0.677 | phosphorylation enrichment (Jak2): 0.653 | phosphorylation enrichment (AncSZ): 0.702 | phosphorylation enrichment (Fer (mouse)): 0.485 | phosphorylation enrichment (EPHB1): 0.496 | phosphorylation enrichment (EPHB2): 0.48 | phosphorylation enrichment (FGFR3): 0.408 | phosphorylation enrichment (Hck): 0.709 | phosphorylation enrichment (FGFR1): 0.357 | phosphorylation enrichment (Fes): 0.732 | phosphorylation enrichment (Fyn): 0.574 | phosphorylation enrichment (c-Abl (mouse)): 0.825 | phosphorylation enrichment (c-Src): 0.625
